The nature of this data set: soluble on expression in E. coli; label from the status in PepcDB or PDB records.
Take “MKPEKRHATESMTMEALLDLLPKDAATDPTGRRLAELVTRIATKRVPVSSFSRIWNLGSLQARVTIGYVAYWLRSRFADSDEKQRLRNEAHLAAALRLFGTMGYLRGAVMKIGQLLANLPEVVPEEFAEVLSALHFEAPPMHFSLVRELFLDEFGREPEELFASFDRQAFAAASLGQVHRARLKSGEEVAVKIQYPGIARTIKADLRNLRLLLQPLCLTNDWQNTLDKLADIEQMLLMETDYEQEARFCREARLLFTTEDRVVVPRVFDDYSTKRVLTTEFLTGCHLDQFLAGNPSQAERDHFTTLLTVATMRIYYRLHWFCADPHPGNFIFMLDGRLGLIDFGCTRAMNGEEWRLICELEQAHQEEDAEQFDRVIARATLYDSPEAMGKEQLAVVRRNVLWNMEPWLKEGLFDFGDREFFMRGIDGLMELTRKRYTRGSPLYLWSTRFVLGGRAVCYQMRGRCEFQEIFRQESAWVCPEPPILEHHHHHH”: the “soluble on expression in E. coli” value was “not soluble”. The entry for “MKPLKEYLLIPTQMRVFETQTQAIETSLSVNAQTSESSEAFTVKKDPHEIKVTGKKSGESELVYDLAGFPIKKTKVHVLPDLKVIPGGQSIGVKLHSVGVLVGFHQINTSEGKKSPGETAGIEAGDIIIEMNGQKIEKMNDVAPFIQKAGKTGESLDLLIKRDKQKIKTKLIPEKDEGEGKYRIGLYIRDSAAGIGTMTFYEPKTKKYGALGHVISDMDTKKPIVVENGEIVKSTVTSIEKGTGGNPGEKLARFSSERKTIGDINRNSPFGIFGTLHQPIQNNISDQALPVAFSTEVKKGPAEILTVIDDDKVEKFDIEIVSTTPQKFPATKGMVLKITDPRLLKETGGIVQGMSGSPIIQNGKVIGAVTHVFVNDPTSGYGVHIEWMLSEAGIDIYGKEKASLEHHHHHH” is “not soluble”; for “MKPLLTAMFGATLATASTLASAEVAVIMNAGASAAPSQAEVANIFLGKDTSLKGLDQKGWNPTKERFYSALTNKNESQLKSYWSGLVFTGKGQPLQSVDDDAAVIAKVGSEANAIGYIDTSAVNDKVKVLFTLP” it is “not soluble”; for “MKQLMIEASTPLCQLQDAGRFGVRHLGVTQGGALDWVAMHWANWLLGNPLGAPVVEVALGGFCVVAEQDCVLALAGADLDACVDDQPLAPWRSFALAKGQRLTLKQPKVGVRAYLAAPGGFLGEDVLGSCATVVREALGGIDGQGAALAKHQALAFTGSNAPLREVPQALCPQFAQKPVLDLVMGAQIGEFSGTSLFEAFNREWTLDSRADRMGIRLLGPQLVYQGAPMISEGIPLGAVQVPPDGQPIVLLNDRQTIGGYPRLGALTPLALAQLAQCMPGTVVRFRAVVQDEAWREQQLYLGRWS” it is “not soluble”. With “MKQLNFKKIFLNLLWPLLPFTAQAQENNTLYSILSKDNILVSSPSVQNQEEDIVTQMPNRHHKYDKRVHRYRRAWEALIPTHTKLQYAGGMGLLSWGIGWDYGKRGQWETDLLLGFIPRYSSKHFKMTMTLKQNYIPWSIWLGKDFSLEPLTTGIYFNTVFSDDFWTSEPERYPRGYYGFSTRIRTHIFLGQRVRFDVPEKYRKFSKSITAFYEISTCDLYVVSAFNNSYLKPDDYLRLSFGLKFQIF”, the “soluble on expression in E. coli” value is recorded as “not soluble”. To “MKQRHGNSLLTTDTKCISCRLGVPLSPQRRFQAIRIEEVKLRWFAFLIVLLAGCSSKHDYTNPPWNAKVPVQRAMQWMPISQKAGAAWGVDPQLITAIIAIESGGNPNAVSKSNAIGLMQLKASTSGRDVYRRMGWSGEPTTSELKNPERNISMGAAYLNILETGPLAGIEDPKVLQYALVVSYANGAGALLRTFSSDRKKAISKINDLDADEFLDHVARNHPAPQAPRYIYKLEQALDAM” belongs “not soluble”; to “MKQVAKGLQMEGNFGTAHVYRSSLNAIIAYRGKGDFTFHEVTPEWLKGFEIHLRGRGCSWNTVSTYLRTFRAVYNRAVDCRGAVYVPHLFRSVYTGTRADRKRALCDEDMQKVFAKLPSSPAVTPAMRRTQELFVLMFLLRGLPFVDLAYLRKSDLHDNVITYRRRKTGRPLSVTLTREAMVLLKRYMNRDSSSPYLFSLLESREGTKEAYREYQLALRSFNQQLLLLGQLLGLGDRLSSYTARHTWATTAYYCEIHPGIISEAMGHSSITVTETYLKPFRNKKIDEANQLVTDFVKRIVTGLIA”, “not soluble”; to “MKQYFYERECQNPELREQSLLERLPSFITYAKQECQHYGQILQHIDADKITSRELLAQLPITRKSDLMKLQAKNSPLGGLNANKANIGRIFQSPGPIYDPENTSDDWWRLGQAFYAAGFRAGDIVQNCLSYHLTPGGFILDSGARACGCVVIPAGPGQTEQQLDIIEHLKPQGYSGTPSFLKILLDKAKAENRDISSVTKALVTGEALPKGLRAEFDAAGINTLQAYASADVGLIGFESKSDDGFIIAEDLLVEIVRPGTLEPVADGEIGEVVVTSFNVDYPLIRFATGDLSAVKSSESACGRTNMCIKGWLGRADQTTKIKGMFVHAEQIEQVRQAYPHIAKMRLSVTQVNYNDQMNLQCELDSSGYSEADIAGAIENISSSLKKTTKLNGAVELVAVGTLADDGKVIDDLRPIG”, “not soluble”. To “MKRARSANIPGAILHSLAELQDGLNAMIDPSWRAVRSLDNWALAITMESTELLDSYPWKWWKNLNATPDLANVRIELVDIFHFSLSGAMQMRSTPDDEIPAASLKPLKEVMTTFLPAKECTSDPYGFVFFPLTDTQNAIASFRNIIQLANAYRFDVIIECIIYAAEDLGFNLVAYYIAKHTLNCIRQLSGYKDGSYVKVNNGVEDNSLLHNCIKDVSLDEVLDADKYVQAWNSIMANVYEAFQIKESDRKDAERWFALAKENRLAIKA” belongs “soluble”; to “MKRDDLMQIIKRDGHVADFDPDKIYQAIIKAARTVYVIDDTWRQNLTHVTKKVVIDLEEAHVERPTINMVQSLVENRLMDAGYITIAEHYISYRLQRDLERNGYGDKIVVHLRFEQIK”, “soluble”; to “MKRFARKETIYLRGEEARTLYRLEEGLVRVVELLPDGRLITLRHVLPGDYFGEEALEGKAYRYTAEAMTEAVVQGLEPRAMDHEALHRVARNLARQMRRVQAYEAHLQTGELRARIARYLLFLADTPLSARDRQGIYVTVSHEEIADATASIRESVSKVLADLRREGLIATAYRRVYLLDLAALEREAGSALEAA”, “soluble”. To “MKRFNVLKYIRTTKANIQTIAMPLTTKPLSLKINAALFDVDGTIIISQPAIAAFWRDFGKDKPYFDAEHVIHISHGWRTYDAIAKFAPDFADEEYVNKLEGEIPEKYGEHSIEVPGAVKLCNALNALPKEKWAVATSGTRDMAKKWFDILKIKRPEYFITANDVKQGKPHPEPYLKGRNGLGFPINEQDPSKSKVVVFEDAPAGIAAGKAAGCKIVGIATTFDLDFLKEKGCDIIVKNHESIRVGEYNAETDEVELIFDDYLYAKDDLLKW” belongs “soluble”.

For the sequence “MKRIFVQNRELVVPGTLLAQGPYKNGRGTFREGSRIYSTVIGLVDIKGNTIRVIPLEGPYIPEVGDNVIGKIVDVKFSSWVVDIGAPYLANLKIQDFTDEKIDLLRTDLRKFFDIGDIIYGKVKAITEVNNIDLTTKGMPFNGGPLKGGQIVKITPSRVPRVIGRGGSMINMIKKLTMTRIIVGQNGWIWVNGKNEALEKLAIEAILKIDRESHTKGLTDRIKSLLLSRLQELKEKGVIEEIPELEEEPQEETEVNNNDGETRRT”, the “soluble on expression in E. coli” value was “soluble”. To “MKRISPLRSLVACRWTNRARKRLAAVGLASICLLSACAPKFDKGEEVVQDKGSKQQEAVIPKYNIADSYYRVILPFKPSGARGEVVNDLNTRLDVDEFETGLMRLATEQFPSDEYLFQEGQYLDSETVGKWLARKKTTRQLKEEKMKPEDNLGLNPPISDTGTNEQKNKQSPIYLASILEHDYLVKIDNDKVKLGGIAIGLALNSVHYYSTEQGYPREVKIKDDVIEREGKRIAAEVLKRLRSMKGLGSVPITIALYKQAPRSSVVPGHFFAVAHVDGGDSTIDEWEAVNEEYYLFPSDEAEENHRDDWLKFNNFKSDVEDFFPNYTGIVGRGLYVNDQLQKLTINITMPFYGKAEVIGFTQYVTGLVMEKFPDYITVNVYIASAGQPESLIVRQAKADEPFVHIYQ” belongs “not soluble”. The entry for “MKRLTERVIIMKGAGEMATGVACRLHRSGFRRILMLEAPSPLAVRRGVSFCEAIHNGRKSVEGIEAVRIENGSALADAWGKGEIPLLADPQGDAVRRMEPDILIDATIAKRNLGIAITDAPLVIALGPGFFAGRDCHLVIETNRGHNLGRLIACGEAEPNTGIPGNIGGYTRERVLRAPADGHFTTEKVIGDQVSKGDVVGIVGTNTVTASIDGILRGLIRPGTHVTTGLKIGDIDPRGDTAYCHTISEKARALGGSVLEAILTVYNQLEHHHHHH” is “not soluble”; for “MKRQKRDRLERAQSQGYKAGLNGRSSEHCPYQSMDARSCWLGGWRDARDDKQSGLFKLEHHHHHH” it is “not soluble”; for “MKRQLILEDGTVLIGTGFGGEIEKSGEVVFTTGMTGYQETLSDPSYCGQIVTFTYPLIGNYGINRDDFESIHPSVNGLIVNEICDHPSNFRNEISLNDYLKERNIPGLAGIDTRKLTRKIRQYGTLRGRLCNMDADVEYIVSQLKATVFTDHVKRVSTKDPYPSPGRGHRVVLVDFGMKHGILRELNKRDCDVIVVPYNTTAEEILRLSPDGIMLSNGPGDPKDVPEAIEMLKDIIGKVPLFGICLGHQLFALASGANTSKLKFGHRGLNHPVKNIATGKVAITSQNHGYAVEEESVENTELEITHVALNDGTVEGLRHKKFPAFTVQYHPEASAGPEDANDLFEDFLTMIENFKKEGEELCQNA” it is “not soluble”. On to “MKRVVLYIKDKCPHCKDAQRYLDSKGIKYRLCNAKMERGRKELDALGARSVPVLKIGDRLMIGWNHTNFERIYSSKD”, for which the “soluble on expression in E. coli” value was “not soluble”. To “MKSHQFSTALCQNTTESNGQPLRFPSPAKLNLFLYINGKFPNGYHELQTLFQFLDFGDWLDISIREQDNQIVLTPEIPNLKTENNLIYRAAKLLQEKANIQLGANIHLDKILPMGGGVGGGSSNAATALVSLNYLWQANLSIDELAKLGLTLGADVPIFVHGHAAFAEGVGEKITYCEPAEKWFVILKPDDSISTAVIFQDPNLPRNTPKKSLAQLLSEPYKNDCEKVVINHYSNVEKALNWLLQYAPARLTGTGACVFAEFDHEAEAQAVFRQKPEAFFGFVAKGLNVSPLHAMLKQLSSTHTHRQSKPEVLLEHHHHHH” belongs “soluble”; to “MKSRIVYGPILSRRLGRSLGIDVIKNTGSKKNCNYDCIYCQLGHVELKLGSPEDVKEAVTPKEVSESFEKFYKDVEGLDYITFSGTCEPSLNLSLGEMIQSIREISGVPVCVITNSSLMGREDVRKNLSQADLVVATLVSGIEKTWRKIHRPAPCINFQEIIEGLRELAKAGDGKKLALEVMFLESETGEPLNSTDEEVDCLIKTIRYICPDEIEVLTISRPPAEKWVKPVSEERLREIADRFISEFGAEKVRLVLKGKKKKAKVLHRDLEEEVYALLLRRPCTFEQTWQGLSIDPESLRPVLEKLLAEGKIEEIGSKNSVYYRAK”, “not soluble”. To “MKSSDRLFTGRSENYSKFRPSYPVGIVKMLTDKYGLKKEMVIADIGCGTGILARMFLENGNKVYCIDPNGEMLKFAKDELSSFGNAIIVRGSAENTGLEDHSVNVISAGQSFHWFDTDKAKVEFRRILTAPYMVVLIWNDRDIDDGFTAEYEKIVSAYGKNYQGTGSTGLPPDTIPQFFNWAYDYYQYQNYQELDLEGLKGRYLSTFYSITQEYPKFQAAMKALETAFNAFSVDGKVRIRYITKVFVGKLNPLEHHHHHH” belongs “soluble”.

Source of the values: the DeepSol protein solubility set.
